Experimental findings from patent US9175027B2, “Polymer-carbohydrate-lipid conjugates” (priority 2011, dated 2015) are described below.

Ends that are not written are not given here.

A short description of data set [1]: Stability of peptide solution by HPLC assay. In kind it is physicochemical. The conditions noted are these: 24 hours. Here is the method: Stability experiment was carried out by HPLC assay and a custom synthesized thermolabile peptide with the following sequence was used as the model compound: […] The peptide was added to selected media and sonicated for 10 minutes. The sample solutions were filtered through passed through 0.22-μm pore-size filter to remove dust particles before the HPLC assay. A Simadzu 10avp chromatography system with a Kinetex C18 (2.6 μm, 100×4.6 mm i.d.) column (Phenomenex, Torrance, Calif.) were used. The solutions were kept at 25° C. in the Autosampler during the assay and the mobile phase consisted of 0.1% of trifluoroacetic acid and acetonitrile mixture (v/v, 80/20) with a flow rate of 1.0 mL/min. The peptide peak was monitored at 210 nm and quantitated using external standard sets of the peptide.
The plots were the % recovery vs. time.

The nature of data set [2]: Body weight change as evidence of cisplatin renal toxicity. Conditions: mice, compared with free sugars. In kind it is in vivo, mice (B6D2F1). The procedure: Groups of four each of mixed gender mice (B6D2F1), […] and weights of 22 to 30 grams) were studied in duplicate. Each mouse was administrated cisplatin intravenously at a dose of 10 mg/kg (Table 15) and Intraperitoneally at a dose of 15 mg/kg (Table 16). The changes in body weights observed can be used as a direct evident in the renal toxicity effects.

Data set [3] can be described thus: Physical state of Propofol formulation with PEG-carbohydrate-lipid (solution vs suspension/microemulsion). The format is physicochemical. Here is the method:
A propofol solution suitable for intravenous delivery is prepared as follows. 5% (w/v) of OAPDL-PEG in Saline was added to a vessel equipped with a mixer propeller and 2% (w/v) of Propofol was added with constant mixing at ambient room temperature. Mixing was continued until the drug was visually dispersed. Equal volume of Saline was added to the vessel with adequate mixing. Mixing continued for another 30 minutes or until a homogenous solution was achieved. A sample formulation is described in Table 14.
In Example 16, less concentrated or less purified PEG-sugar-lipid will create a suspension instead of an aqueous solution. For instance, the final concentration of the PEG-carbohydrate-lipid is less than 1.5% (w/v), it will form a suspension. Similarly when the oligomer purity is 80% or less, regardless the concentration of the PEG-carbohydrate-lipid, an emulsified solution will be observed instead of a transparent solution.
Propofol as the active agent was formulated with various polymer-lipid-carbohydrate conjugates described in the present invention. At a lower of the polymer-lipid-carbohydrate conjugate concentration, i.e., OAPDL-11 (<1.5%), the formulation is a microemulsion and at a higher OAPDL-11 concentration (≧2.2%), it is a true solution.
A solution is defined as a homogenous mixture of substances with variable composition. […]

Regarding “FPKLSHGCNKHSRKHPYMTF [peptide, custom synthesized thermolabile peptide used as the model compound]”, in data set [1] (in a 50 mM of phosphate buffer), the peptide degradation result is “degraded significantly”. Also, the peptide still remaining entry in data set [1] (in a 2% of PEG-carbohydrate-lipid) is listed as “more than 97%”.

With “oleoyl-N-(3-aminopropyl)propane-1,3-diamine-Undecaethylene glycol methyl ether Lactobionate [OAPDL-11]”, in data set [2], the “intravenous hydration effect for reducing renal toxicity of cisplatin” value is “better than free sugars”. The “state of Propofol formulation” value is “microemulsion” in data set [3] (OAPDL-11 concentration <1.5%) and “true solution” in data set [3] (OAPDL-11 concentration ≧2.2%).
